# Data taken from patent publication US20090162358A1 (GlaxoSmithKline, published 2009).
# Columns and labels:
# human β-amyloid 1-40 [1] = biological target: T1, human β-amyloid 1-40 (human, UniProt P05067 672-711); assay: ELISA on human Aβ peptide (1-40), in combination with H11
# T1 construct: domain: β-amyloid (1-40); Used in solution over captured antibody (Biacore) or coated on ELISA plates; also called human Aβ peptide (1-40); Aβ peptide (1-40)
# human β-amyloid 1-40 [2] = biological target: T1, human β-amyloid 1-40; assay: SPR Biacore T100 at 37 C; antibody captured on anti-human IgG, Aβ 1-40 at 1-256 nM
# Protocol: (§1) Anti-human IgG (Biacore BR-1008-39) was coupled to a CM5 biosensor chip by primary amine coupling. The anti-beta amyloid antibodies were captured on this surface. Beta amyloid (1-40) was then passed over at 256, 64, 16, 4 and 1 nM, with a 0 nM (ie buffer alone passed over the captured antibody surface) used for double referencing. […] The data was analysed using the 1:1 model inherent to the T100. The run was carried out at 25° C. and 37° C. using HBS-EP as the running buffer.
# From this panel some constructs were also assessed for binding kinetics at physiological temperature.
# human β-amyloid 1-40 [3] = biological target: T1, human β-amyloid 1-40; assay: SPR Biacore T100; antibody captured on anti-human IgG, Aβ 1-40 at 1-256 nM; 1:1 model
# Protocol: as §1
# T1 sequence (P05067 672-711 limits assumed): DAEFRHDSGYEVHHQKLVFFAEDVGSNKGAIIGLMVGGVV
binding result (human β-amyloid 1-40 [1]),Kd (human β-amyloid 1-40 [2]) [nM],Kd (human β-amyloid 1-40 [3]) [nM],Binder
binds,–,–,"straight graft light chain L0 in combination with H11 (antibody, V domains shown, Kabat positions; after CDRL1 the count on the entry is Kabat + 5; also called H11L0) VH: QVQLVQSGAEVKEPGASVKVSCKGSGFNIKVYYVHWLRQLPGKGLEWIGRIDPENGETIYTPKFQDKATLTVDTSTDTAYMELSSLRSEDTAVYYCVSSGYWGQGTLVTVSS VL: DIVMTQSPLSLPVTPGEPASISCRSSKSLLHRNGITYLYWYLQKPGQSPQLLIYQMSNLASGVPDRFSGSGSGTDFTLKISRVEAEDVGVYYCAQNLELWTFGQGTKVEIKR"
–,3.89,2.23,"humanised de-immunised construct H51L20 (antibody, human IgG1, V domains shown) VH: QVQLVQSGAEVKEPGASVKVSCKGSGFNIHTYYVHWLRQLPEKGLEWIGRIDPENGETIYTPKFQDKATLTVDTSTDTAYMELSSLRSEDTAVYYCVSSGYWGQGTLVTVSS VL: DIVMTQSPLSNPVTPGEPASISCRSSKSLLHRNGITYLYWYLQKPGQSPQLLIYQMDHLASGVPDRFSSSGSGTDFTLKISRVEAEDVGVYYCAQNLELWTFGQGTKVEIK"
–,2.7,2.17,"humanised de-immunised construct H50L21 (antibody, human IgG1, V domains shown) VH: QVQLVQSGAEVKEPGASVKVSCTGSGFNIHVYYVHWLRQLPEKGLEWIGRIDPENGETIYTPKFQDKATLTVDTSTDTAYMELSSLRSEDTAVYYCVSSGYWGQGTLVTVSS VL: DIVMTQSPLSNPVTPGEPASISCRSSKSLLHRNGKTYLYWYLQKPGQSPQLLIYQMDNLASGVPDRFSSSGSGTDFTLKISRVEAEDVGVYYCAQNLELWTFGQGTKVEIK"
binds,–,–,"humanised VL variant L14 in combination with H11 (antibody, V domains shown, Kabat positions; after CDRL1 the count on the entry is Kabat + 5; also called H11L14) VH: QVQLVQSGAEVKEPGASVKVSCKGSGFNIKVYYVHWLRQLPGKGLEWIGRIDPENGETIYTPKFQDKATLTVDTSTDTAYMELSSLRSEDTAVYYCVSSGYWGQGTLVTVSS VL: DIVMTQSPLSLPVTPGEPASISCRSSKSLLHRNGITYLYWYLQKPGQPPQLLIYQMSNLASGVPDRFSGSGSGTDFTLKISRVEAEDVGVYYCAQNLELWTFGGGTKVEIKR"
